# In paper PMC6321028, “2′-Fluoro-Pyrimidine-Modified RNA Aptamers Specific for Lipopolysaccharide Binding Protein (LBP)”:
# T1: murine lipopolysaccharide binding protein (mLBP-His6) (Mus musculus, UniProt Q61805 25-481)
# T1 sequence: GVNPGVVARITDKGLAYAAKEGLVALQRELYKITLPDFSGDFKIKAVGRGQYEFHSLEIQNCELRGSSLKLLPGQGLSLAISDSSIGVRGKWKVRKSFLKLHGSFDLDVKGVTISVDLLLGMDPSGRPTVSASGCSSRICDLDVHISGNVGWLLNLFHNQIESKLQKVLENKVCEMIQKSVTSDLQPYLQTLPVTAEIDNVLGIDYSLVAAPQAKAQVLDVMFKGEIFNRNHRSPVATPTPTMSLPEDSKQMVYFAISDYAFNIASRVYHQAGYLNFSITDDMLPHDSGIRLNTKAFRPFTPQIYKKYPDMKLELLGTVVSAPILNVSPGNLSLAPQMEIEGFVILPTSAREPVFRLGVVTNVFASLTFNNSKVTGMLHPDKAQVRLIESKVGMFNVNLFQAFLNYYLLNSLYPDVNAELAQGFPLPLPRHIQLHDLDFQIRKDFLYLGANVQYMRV
# B1: A036 (XNA)
# RNA: GGGAAUUCGAGCUCGGUACCGAUAUACGGUGCCGCUUCUCUAACCGGUGGUCAUGCGGUUGGACGCUCGAACAGACUACUGCAGGCAUGCAAGCUUGG
# modifications: 2'-fluoro C and U
# B2: A011 (XNA)
# RNA: GGGAAUUCGAGCUCGGUACCGGACUGUGGAUUGUUCUGGGUGCCGCUUCUCCGAAUAUCGGACUCUCGAACUCCUGGGGACUGCAGGCAUGCAAGCUUGG
# modifications: 2'-fluoro C and U (all pyrimidines); A and G ribo
# B3: A011 1-70 (3' boundary fragment) (XNA)
# RNA: GGGAAUUCGAGCUCGGUACCGGACUGUGGAUUGUUCUGGGUGCCGCUUCUCCGAAUAUCGGACUCUCGAA
# modifications: 2'-fluoro C and U
# B4: A011 del 76-100 (XNA)
# RNA: GGGAAUUCGAGCUCGGUACCGGACUGUGGAUUGUUCUGGGUGCCGCUUCUCCGAAUAUCGGACUCUCGAACUCCU
# modifications: 2'-fluoro C and U
# Tests used:
# [1] = biological target: T1, murine lipopolysaccharide binding …; experiment: nitrocellulose filter binding; affinity comparable to A011, among the best binders (screen range about 200-800 nM); 140 mM NaCl, 2.7 mM KCl, 10 mM Na2HPO4, 1.76 mM KH2PO4, 2 mM MgCl2; pH not stated; 37 °C, 1 h; RNA refolded; mLBP 15-1000 nM; conditions: protein: recombinant; tags: C-terminal His6; label: 32P; three-helix junction (predicted)
# [2] = biological target: EF-Tu (Thermus thermophilus, UniProt Q5SHN6 2-406); experiment: nitrocellulose filter binding; 140 mM NaCl, 2.7 mM KCl, 10 mM Na2HPO4, 1.76 mM KH2PO4, 2 mM MgCl2; pH not stated; 37 °C, 1 h; RNA refolded; mLBP 15-1000 nM; conditions: label: 32P (internal or 5'); three-helix junction, helices P1-P4
# Sequence of EF-Tu (Q5SHN6 2-406): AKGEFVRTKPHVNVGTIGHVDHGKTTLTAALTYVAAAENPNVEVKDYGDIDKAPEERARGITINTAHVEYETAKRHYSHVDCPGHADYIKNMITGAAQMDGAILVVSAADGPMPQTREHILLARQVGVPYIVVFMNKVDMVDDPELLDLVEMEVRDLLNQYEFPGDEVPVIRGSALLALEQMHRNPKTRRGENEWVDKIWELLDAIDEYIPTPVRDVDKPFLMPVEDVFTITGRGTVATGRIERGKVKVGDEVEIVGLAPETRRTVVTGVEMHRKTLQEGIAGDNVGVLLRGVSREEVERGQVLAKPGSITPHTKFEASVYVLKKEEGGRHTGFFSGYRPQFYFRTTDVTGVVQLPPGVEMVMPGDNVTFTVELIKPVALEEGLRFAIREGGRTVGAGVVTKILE
# [3] = biological target: T1, murine lipopolysaccharide binding …; experiment: nitrocellulose filter binding; 2 mM MgCl2; 140 mM NaCl, 2.7 mM KCl, 10 mM Na2HPO4, 1.76 mM KH2PO4, 2 mM MgCl2; pH not stated; 37 °C, 1 h; RNA refolded; mLBP 15-1000 nM; conditions: protein: recombinant; tags: C-terminal His6; label: 32P (internal or 5'); three-helix junction, helices P1-P4
# [4] = biological target: T1, murine lipopolysaccharide binding …; experiment: boundary experiment, nitrocellulose filter retention; 200 or 400 nM mLBP; no apparent effect on affinity; 140 mM NaCl, 2.7 mM KCl, 10 mM Na2HPO4, 1.76 mM KH2PO4, 2 mM MgCl2; pH not stated; 37 °C, 1 h; RNA refolded; mLBP 15-1000 nM; conditions: protein: recombinant; tags: C-terminal His6; label: 5' 32P; P1 pairs U6-G11 with C65-A70
# [5] = biological target: T1, murine lipopolysaccharide binding …; experiment: 140 mM NaCl, 2.7 mM KCl, 10 mM Na2HPO4, 1.76 mM KH2PO4, 2 mM MgCl2; pH not stated; 37 °C, 1 h; RNA refolded; mLBP 15-1000 nM; conditions: protein: recombinant; tags: C-terminal His6; three-helix junction
binder,measurement,setting,value
B1,binding result,[1],binds
B2,binding result,[2],no binding
same,Kd,[3],267 nM
B3,binding result,[4],binds
B4,binding signal,[5],~5 fold reduction in affinity vs A011
